Data as given in IntAct's records for PubMed 10713164.

Target: ncor2_human NCOR2 (UniProt Q9Y618)

Recombining binding protein suppressor of hairless (Homo sapiens), Q06330 E233A;E234A;F235A
effect of a mutation on the interaction: decreasing interaction strength
